# T1: MMP7 catalytic domain (UniProt P09237 95-267)
# T1 sequence (looked up): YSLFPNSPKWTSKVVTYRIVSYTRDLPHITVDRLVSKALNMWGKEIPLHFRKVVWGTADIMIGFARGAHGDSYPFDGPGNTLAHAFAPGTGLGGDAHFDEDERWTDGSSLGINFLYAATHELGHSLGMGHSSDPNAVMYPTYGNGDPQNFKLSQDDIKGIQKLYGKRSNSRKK
# T2: TACE pro-domain R58A mutant
# T2 chain: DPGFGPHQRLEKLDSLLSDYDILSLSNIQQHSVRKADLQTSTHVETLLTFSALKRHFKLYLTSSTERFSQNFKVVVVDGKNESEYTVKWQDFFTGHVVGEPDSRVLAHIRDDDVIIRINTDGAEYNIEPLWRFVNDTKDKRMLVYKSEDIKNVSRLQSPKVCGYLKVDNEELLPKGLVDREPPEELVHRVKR
# T3: TACE pro-domain (wild type)
# T3 chain: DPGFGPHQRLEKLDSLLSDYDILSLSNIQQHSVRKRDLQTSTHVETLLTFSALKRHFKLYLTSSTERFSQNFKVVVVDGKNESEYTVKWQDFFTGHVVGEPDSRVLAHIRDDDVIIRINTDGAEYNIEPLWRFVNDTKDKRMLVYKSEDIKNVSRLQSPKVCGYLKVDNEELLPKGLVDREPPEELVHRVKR
# Experiments:
# TACE catalytic domain = TACE catalytic domain (UniProt P78536 215-477, limits assumed); experiment: cell-based or functional assay
# MMP9 catalytic domain = MMP9 catalytic domain (UniProt P14780 107-444, limits assumed); experiment: cell-based or functional assay
# MMP7 catalytic domain = target: T1, MMP7 catalytic domain; experiment: cell-based or functional assay
# [1] = target: T2, TACE pro-domain R58A mutant
# [2] = target: T3, TACE pro-domain (wild type)
# Sequence of TACE catalytic domain (P78536 215-477 limits assumed): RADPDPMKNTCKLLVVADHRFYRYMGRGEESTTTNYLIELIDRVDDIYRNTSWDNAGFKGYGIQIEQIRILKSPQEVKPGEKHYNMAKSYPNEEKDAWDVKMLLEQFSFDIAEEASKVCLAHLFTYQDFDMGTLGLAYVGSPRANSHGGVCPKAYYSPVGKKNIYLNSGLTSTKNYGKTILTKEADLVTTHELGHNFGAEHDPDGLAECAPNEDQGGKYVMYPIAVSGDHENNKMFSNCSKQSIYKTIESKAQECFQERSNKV
# Sequence of MMP9 catalytic domain (P14780 107-444 limits assumed): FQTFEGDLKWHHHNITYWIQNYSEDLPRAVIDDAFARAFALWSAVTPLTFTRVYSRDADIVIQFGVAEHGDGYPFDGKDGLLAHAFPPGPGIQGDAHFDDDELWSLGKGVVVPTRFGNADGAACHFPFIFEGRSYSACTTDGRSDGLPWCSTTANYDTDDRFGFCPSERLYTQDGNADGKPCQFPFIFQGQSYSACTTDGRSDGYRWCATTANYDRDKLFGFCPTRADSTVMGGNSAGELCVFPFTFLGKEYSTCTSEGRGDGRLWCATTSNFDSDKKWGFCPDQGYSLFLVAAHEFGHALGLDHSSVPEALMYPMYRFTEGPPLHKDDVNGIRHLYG
"IC50, proteolytic activity of TACE (TACE catalytic domain)","IC50, catalytic activity on fluorogenic peptide (TACE catalytic domain)","IC50, catalytic activity on fluorogenic peptide (MMP9 catalytic domain)",IC50 relative to the IC50 towards TACE (MMP9 catalytic domain),"IC50, catalytic activity on fluorogenic peptide (MMP7 catalytic domain)",IC50 relative to the IC50 towards TACE (MMP7 catalytic domain),Molecule,cleavage by Furin (SDS-PAGE) [1],cleavage by Furin (SDS-PAGE) [2]
55 nM,,,,,,TACE pro-domain R58A mutant (from UniProt P78536 23-214),,
23 nM,119 nM,4480 nM,40 fold,8790 nM,80 fold,TACE pro-domain (wild type) (other) DPGFGPHQRLEKLDSLLSDYDILSLSNIQQHSVRKRDLQTSTHVETLLTFSALKRHFKLYLTSSTERFSQNFKVVVVDGKNESEYTVKWQDFFTGHVVGEPDSRVLAHIRDDDVIIRINTDGAEYNIEPLWRFVNDTKDKRMLVYKSEDIKNVSRLQSPKVCGYLKVDNEELLPKGLVDREPPEELVHRVKR,,
,,,,,,Furin (protein) DVYQEPTDPKFPQQWYLSGVTQRDLNVKAAWAQGYTGHGIVVSILDDGIEKNHPDLAGNYDPGASFDVNDQDPDPQPRYTQMNDNRHGTRCAGEVAAVANNGVCGVGVAYNARIGGVRMLDGEVTDAVEARSLGLNPNHIHIYSASWGPEDDGKTVDGPARLAEEAFFRGVSQGRGGLGSIFVWASGNGGREHDSCNCDGYTNSIYTLSISSATQFGNVPWYSEACSSTLATTYSSGNQNEKQIVTTDLRQKCTESHTGTSASAPLAAGIIALTLEANKNLTWRDMQHLVVQTSKPAHLNANDWATNGVGRKVSHSYGYGLLDAGAMVALAQNWTTVAPQRKCIIDILTEPKDIGKRLEVRKTVTACLGEPNHITRLEHAQARLTLSYNRRGDLAIHLVSPMGTRSTLLAARPHDYSADGFNDWAFMTTHSWDEDPSGEWVLEIENTSEANNYGTLTKFTLVLYGTA,pro-R58A mutant was not cleaved by Furin,Only pro-WT was processed by Furin generating a smaller fragment of ˜17kDa

# From patent US20170304412A1 (YEDA RESEARCH AND DEVELOPMENT, published 2017)
